# B1: mAb FL134.33 (antibody, V domains shown)
# VH: AVQLQESGPDLVKPSQSLSLTCTVTGYSITSGYSWHWIRQFPGNKLEWVGYIHYRGNTNYNPSLKSRVSITRDTYKNQFFLQLNSLTTEDTATYYCAQEPVRNYAMDFWGQGTSVTVSS
# VL: DIVMTQSPDTLSVTPGDRVSLSCRASQSISDDLHWYQQKSHESPRLLIKYVSQSISGIPSRFSGSGSRSDFTLTINSVEPEDVGLYYCQNGHGFPPTFGGGTKLEIK
# Biological target: HSA-Fuc-GM1 conjugate (human)
# Assay: SPR (Biacore X), HSA-Fuc-GM1 conjugate amine-coupled to CM5 chip, antibody as analyte, bivalent analyte model
# Chain of HSA-Fuc-GM1 conjugate (human) (P02768 25-609): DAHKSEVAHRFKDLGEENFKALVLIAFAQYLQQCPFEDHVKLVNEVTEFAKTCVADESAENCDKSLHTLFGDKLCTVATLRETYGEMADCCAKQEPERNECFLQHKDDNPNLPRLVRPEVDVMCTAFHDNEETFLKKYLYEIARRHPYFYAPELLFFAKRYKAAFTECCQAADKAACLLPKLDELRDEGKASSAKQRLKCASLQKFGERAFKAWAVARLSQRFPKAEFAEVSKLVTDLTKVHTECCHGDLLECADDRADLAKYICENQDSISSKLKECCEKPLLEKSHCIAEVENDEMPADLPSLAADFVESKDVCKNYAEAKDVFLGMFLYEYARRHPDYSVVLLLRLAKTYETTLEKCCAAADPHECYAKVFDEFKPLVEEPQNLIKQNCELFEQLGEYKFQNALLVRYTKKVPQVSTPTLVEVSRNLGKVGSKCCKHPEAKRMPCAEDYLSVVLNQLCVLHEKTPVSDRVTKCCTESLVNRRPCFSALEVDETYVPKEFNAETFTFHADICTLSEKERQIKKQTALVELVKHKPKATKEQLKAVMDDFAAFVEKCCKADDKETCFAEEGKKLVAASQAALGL
binder,measurement,value
B1,Kd,58 µM
same,koff,0.117 s⁻¹
same,kon,2010 M⁻¹ s⁻¹

# From patent publication US12552876
